As a reminder, the Kd is the free concentration of one partner at which half of the binding sites on the other are occupied at equilibrium, for simple one-to-one binding.

Data set [1] concerns SIV NC (SIVmne). The data set can be described thus: fluorescence anisotropy salt titration. The following applies: FA: 20 mM HEPES pH 7.5, 30-750 mM NaCl, 1 mM MgCl2, 20 µM TCEP, 5 mM 2-mercaptoethanol, room temperature, 400 nM NC, 10 nM RNA (Gag: 20 nM RNA, plus 2 mM …). Background: Fluorescence polarisation rises when a labelled molecule tumbles more slowly, as on binding a larger partner.

The target of data set [2] is HIV-1 NC (HIV-1 NL4-3) (UniProt P12493). The data set can be described thus: fluorescence anisotropy salt titration. The following applies: FA: 20 mM HEPES pH 7.5, 30-750 mM NaCl, 1 mM MgCl2, 20 µM TCEP, 5 mM 2-mercaptoethanol, room temperature, 400 nM NC, 10 nM RNA (Gag: 20 nM RNA, plus 2 mM …).
For data set [3] the target is unchanged. The data set can be described thus: single-molecule DNA stretching. The following applies: FA: 20 mM HEPES pH 7.5, 30-750 mM NaCl, 1 mM MgCl2, 20 µM TCEP, 5 mM 2-mercaptoethanol, room temperature, 400 nM NC, 10 nM RNA (Gag: 20 nM RNA, plus 2 mM …).
Data set [4] relates to SIV NC (SIVmne). The data set can be described thus: single-molecule DNA stretching. Particulars: FA: 20 mM HEPES pH 7.5, 30-750 mM NaCl, 1 mM MgCl2, 20 µM TCEP, 5 mM 2-mercaptoethanol, room temperature, 400 nM NC, 10 nM RNA (Gag: 20 nM RNA, plus 2 mM …).
Data set [5] addresses T1, HIV-1 NC (HIV-1 NL4-3, UniProt P12493 378-432). The data set can be described thus: fluorescence anisotropy salt titration; Kd(1M) extrapolated to 1 M NaCl; Zeff 3.6 ± 0.9; FA: 20 mM HEPES pH 7.5, 30-750 mM NaCl, 1 mM MgCl2, 20 µM TCEP, 5 mM 2-mercaptoethanol, room temperature, 400 nM NC, 10 nM RNA (Gag: 20 nM RNA, plus 2 mM Tris-HCl pH 7.4); stretching buffer not in material. The following applies: protein: recombinant; label: 3' fluorescein (thiosemicarbazide); stem-loops.

Data set [6] has as its target T1, HIV-1 NC. The data set can be described thus: fluorescence anisotropy salt titration; Kd(1M) extrapolated to 1 M NaCl; Zeff 2.6 ± 0.4; FA: 20 mM HEPES pH 7.5, 30-750 mM NaCl, 1 mM MgCl2, 20 µM TCEP, 5 mM 2-mercaptoethanol, room temperature, 400 nM NC, 10 nM RNA (Gag: 20 nM RNA, plus 2 mM Tris-HCl pH 7.4); stretching buffer not in material. Particulars: protein: recombinant; label: 3' fluorescein (thiosemicarbazide); hairpin.

The target in data set [7] is T1, HIV-1 NC. The data set can be described thus: fluorescence anisotropy salt titration; Kd(1M) extrapolated to 1 M NaCl; Zeff 2.4 ± 0.4; FA: 20 mM HEPES pH 7.5, 30-750 mM NaCl, 1 mM MgCl2, 20 µM TCEP, 5 mM 2-mercaptoethanol, room temperature, 400 nM NC, 10 nM RNA (Gag: 20 nM RNA, plus 2 mM Tris-HCl pH 7.4); stretching buffer not in material. Particulars: protein: recombinant; label: 3' fluorescein (thiosemicarbazide); hairpin.

In the case of “AGUCGCUCUGCGGAGAGGCUGGCAGAUUGAGCCCUGGGAGGUUCUCUCCAGCACUAGCAGGUAGAGCCUGGGUGUUCCCUGCUAGACUCUCACCAGCACUUGGCCGGUGCUGGGCAGAGUGACU [SIV TAR RNA]”, in the data set on SIV NC (SIVmne) [1], the Kd is 62 µM.
On the same count and under the same terms, the same measure for “CCACGACGGAGUGCUCCUAUAAAGACGCGGGUCGGUACCAGACGGCGUGAGGAGCGGGAGAGGAAGAGGCCUCCGGUUGCAGGUAAGUGCAACACAAAAAAGAAAUAGCUGUCUUUUAUCCAGGAAGGGGUAAUAAGAUAGAGUGG [SIV Psi RNA (WT)]”: 72 µM; for “GGUCUCUCUGGUUAGACCAGAUCUGAGCCUGGGAGCUCUCUGGCUAACUAGGGAACCCACUGCUUAAGCCUCAAUAAAGCUUGCCUUGAGUGCUCAAAGUAGUG [HIV-1 TARpolyA RNA]”: 82 µM.
Take HIV-1 Psi RNA (WT): the Kd amounted to 4 µM with HIV-1 NC (HIV-1 NL4-3) [2] and 3.9 µM in the data set with SIV NC (SIVmne) [1].
“dsDNA used for single-molecule stretching”: the Kd with HIV-1 NC (HIV-1 NL4-3) [3] stood at 0.0042 µM; in the data set on SIV NC (SIVmne) [4], 0.0055 µM.

B1: SIV Psi RNA (WT) (structured_RNA)
RNA: CCACGACGGAGUGCUCCUAUAAAGACGCGGGUCGGUACCAGACGGCGUGAGGAGCGGGAGAGGAAGAGGCCUCCGGUUGCAGGUAAGUGCAACACAAAAAAGAAAUAGCUGUCUUUUAUCCAGGAAGGGGUAAUAAGAUAGAGUGG
As to B1, the Kd with HIV-1 NC [5] was 100 µM.

B2: SIV TAR RNA (structured_RNA)
RNA: AGUCGCUCUGCGGAGAGGCUGGCAGAUUGAGCCCUGGGAGGUUCUCUCCAGCACUAGCAGGUAGAGCCUGGGUGUUCCCUGCUAGACUCUCACCAGCACUUGGCCGGUGCUGGGCAGAGUGACU
As for B2, the dissociation constant Kd with HIV-1 NC [6] was 81 µM.

B3: HIV-1 TARpolyA RNA (structured_RNA)
RNA: GGUCUCUCUGGUUAGACCAGAUCUGAGCCUGGGAGCUCUCUGGCUAACUAGGGAACCCACUGCUUAAGCCUCAAUAAAGCUUGCCUUGAGUGCUCAAAGUAGUG
As to B3, the Kd in the data set with HIV-1 NC [7] was 120 µM.

Values taken from article PMC5198506, “Mechanistic differences between HIV-1 and SIV nucleocapsid proteins and cross-species HIV-1 genomic RNA recognition”.
